# Results reported in article PMC6980855.
# B1: BimL (single cysteine Q41C, Alexa568-labeled, recombinant) I90E; L94E; I97E; F101E (protein)
# chain: MHHHHHHGGSGGTGGSENLYFQGTMAKQPSDVSSECDREGGQLQPAERPPQLRPGAPTSLQTEPCDRSPAPMSCDKSTQTPSPPCQAFNHYLSAMASIRQSQEEPEDLRPEIREAQEERREGDEENETYTRRVFANDYREAEDHPQMVILQLLRFIFRLVWRRH
# B2: BimL (single cysteine Q41C, Alexa568-labeled, recombinant) I132E (protein)
# chain: MHHHHHHGGSGGTGGSENLYFQGTMAKQPSDVSSECDREGGQLQPAERPPQLRPGAPTSLQTEPCDRSPAPMSCDKSTQTPSPPCQAFNHYLSAMASIRQSQEEPEDLRPEIRIAQELRRIGDEFNETYTRRVFANDYREAEDHPQMVILQLLRFEFRLVWRRH
# B3: BimL (single cysteine Q41C, Alexa568-labeled, recombinant) V124E (protein)
# chain: MHHHHHHGGSGGTGGSENLYFQGTMAKQPSDVSSECDREGGQLQPAERPPQLRPGAPTSLQTEPCDRSPAPMSCDKSTQTPSPPCQAFNHYLSAMASIRQSQEEPEDLRPEIRIAQELRRIGDEFNETYTRRVFANDYREAEDHPQMEILQLLRFIFRLVWRRH
# B4: BimL (single cysteine Q41C, Alexa568-labeled, recombinant) R130A; R134A (protein)
# chain: MHHHHHHGGSGGTGGSENLYFQGTMAKQPSDVSSECDREGGQLQPAERPPQLRPGAPTSLQTEPCDRSPAPMSCDKSTQTPSPPCQAFNHYLSAMASIRQSQEEPEDLRPEIRIAQELRRIGDEFNETYTRRVFANDYREAEDHPQMVILQLLAFIFALVWRRH
# B5: BimL (single cysteine Q41C, Alexa568-labeled, recombinant) L129E (protein)
# chain: MHHHHHHGGSGGTGGSENLYFQGTMAKQPSDVSSECDREGGQLQPAERPPQLRPGAPTSLQTEPCDRSPAPMSCDKSTQTPSPPCQAFNHYLSAMASIRQSQEEPEDLRPEIRIAQELRRIGDEFNETYTRRVFANDYREAEDHPQMVILQLERFIFRLVWRRH
# What was measured:
# [1] = molecular target: Bcl-XL (single cysteine 152C, Alexa647-labeled, recombinant), Q07817-1; assay: FRET; conditions: chain shown with the change, 20 nM Alexa568-labeled BimL mutant (FRET donor), Alexa647-labeled Bcl-XL acceptor
# Bcl-XL (single cysteine 152C, Alexa647-labeled, recombinant), Q07817-1, sequence (Q07817 whole entry): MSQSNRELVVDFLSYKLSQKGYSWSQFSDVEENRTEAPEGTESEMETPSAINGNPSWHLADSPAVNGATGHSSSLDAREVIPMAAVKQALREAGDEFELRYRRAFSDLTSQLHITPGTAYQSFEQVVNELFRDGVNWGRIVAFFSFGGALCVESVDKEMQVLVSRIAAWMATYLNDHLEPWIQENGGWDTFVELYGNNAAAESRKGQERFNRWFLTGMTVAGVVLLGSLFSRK
# [2] = molecular target: Bax (single cysteine 126C, Alexa647-labeled, recombinant), Q07812; assay: FRET; conditions: chain shown with the change, 20 nM Alexa568-labeled BimL mutant (FRET donor), Alexa647-labeled Bax acceptor
# Bax (single cysteine 126C, Alexa647-labeled, recombinant), Q07812, sequence (Q07812 whole entry): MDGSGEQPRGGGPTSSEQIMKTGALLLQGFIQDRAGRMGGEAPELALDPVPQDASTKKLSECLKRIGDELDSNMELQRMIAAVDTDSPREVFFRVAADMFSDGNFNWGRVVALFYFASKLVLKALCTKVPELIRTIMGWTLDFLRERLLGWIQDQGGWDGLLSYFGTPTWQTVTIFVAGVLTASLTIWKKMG
# [3] = membranes present (liposomes), apparent Kd, parent: 1±1
# [4] = membranes present (liposomes), apparent Kd, parent: 29±1
binder,measurement,setting,value
B1,Kd,"[1]; in solution, parent: 8±0.4",> 1000 nM
same,Kd,[1]; [3],> 1000 nM
same,Kd,"[2]; in solution, parent: 59±7",> 1000 nM
same,Kd,[2]; [4],> 1000 nM
B2,Kd,"[1]; in solution, parent: 8±0.4",10 nM
same,Kd,[1]; [3],2 nM
B3,Kd,[1]; [3],2 nM
same,Kd,[2]; [4],95 nM
B4,Kd,[1]; [3],20 nM
same,Kd,[2]; [4],64 nM
B5,Kd,[1]; [3],5 nM
